T1: human SIRPA_V4 (human, UniProt P78324 31-504)
T1 construct: FLAG-tagged (pFLAG V5-DEST), on 293α cells; also called human SIRPA Variant 4
T1 chain: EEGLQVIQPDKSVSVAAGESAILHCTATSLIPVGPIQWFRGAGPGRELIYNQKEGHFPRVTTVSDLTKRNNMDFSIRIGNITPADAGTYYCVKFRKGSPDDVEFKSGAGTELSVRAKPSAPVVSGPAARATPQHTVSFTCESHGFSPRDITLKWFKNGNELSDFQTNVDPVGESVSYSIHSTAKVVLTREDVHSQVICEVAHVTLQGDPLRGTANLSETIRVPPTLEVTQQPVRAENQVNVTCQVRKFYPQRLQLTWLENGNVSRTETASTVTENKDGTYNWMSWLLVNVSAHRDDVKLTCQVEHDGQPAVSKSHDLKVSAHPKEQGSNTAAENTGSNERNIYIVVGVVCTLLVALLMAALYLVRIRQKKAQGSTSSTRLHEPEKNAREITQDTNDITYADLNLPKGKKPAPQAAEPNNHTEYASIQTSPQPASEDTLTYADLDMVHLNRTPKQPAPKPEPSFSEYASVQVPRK


Assays:
[1] = biological target: T2, human SIRPA_V10 (human, UniProt P78324 31-504); assay: cell-based ELISA on 293α cells expressing FLAG-tagged SIRPA_V10; Abs 490 normalized to FLAG tag [ii]
T2 construct: FLAG-tagged (pFLAG V5-DEST), on 293α cells; also called human SIRPA Variant 10
T2 sequence (P78324 other isoform, or with tags, fused parts or gaps limits assumed): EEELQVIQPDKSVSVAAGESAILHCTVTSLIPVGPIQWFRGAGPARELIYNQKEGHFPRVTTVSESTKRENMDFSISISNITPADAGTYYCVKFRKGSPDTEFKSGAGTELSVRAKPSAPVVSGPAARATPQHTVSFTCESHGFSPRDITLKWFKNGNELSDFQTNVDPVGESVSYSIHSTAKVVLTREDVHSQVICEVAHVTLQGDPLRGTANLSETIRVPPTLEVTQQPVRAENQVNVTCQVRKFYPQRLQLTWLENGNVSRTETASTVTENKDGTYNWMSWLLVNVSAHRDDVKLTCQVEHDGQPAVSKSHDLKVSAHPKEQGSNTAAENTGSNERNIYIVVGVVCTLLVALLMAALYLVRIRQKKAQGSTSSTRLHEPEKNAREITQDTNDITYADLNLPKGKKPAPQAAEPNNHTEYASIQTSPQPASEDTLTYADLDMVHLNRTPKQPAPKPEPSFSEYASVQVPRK
Procedure: (§1) The 293a cells, described in Example 1)-6, were prepared at 5× 10⁵ cells/mL in a 10% FBS-containing DMEM medium. pFLAG V5-DEST-SIRPA_V1-V10, pFLAG V5-DEST-monkey SIRPA, pFLAG V5-DEST-mouse SIRPA, or pFLAG V5-DEST was introduced into the cells using Lipofectamine LTX (Invitrogen), and 100 μL each was aliquoted to a 96-well plate (Corning Incorporated) and cultured overnight in a 10% FBS-containing DMEM medium at 37° C. under a 5% CO₂ condition. The obtained introduced cells were used for cell-based ELISA in a state that they adhered. After the culture supernatant was removed, 50 μL per well of hD13_HIL3, hD13_HIL4h, hD13_H2L2, hD13_H2L3, or cD13 prepared in Examples 6 and 7 or a control antibody was added to each of various SIRPA genes-introduced cells at a final concentration of 0 to 10,000 ng/ml, and the mixture was allowed to stand at 4° C. for one hour. Thereafter, binding to human SIRPA was evaluated in the same manner as in Example 5-1.

[2] = biological target: T3, human SIRPA_V1 protein (human, UniProt P78324 31-504); assay: cell-based ELISA on 293α cells expressing FLAG-tagged SIRPA_V1; Abs 490 normalized to FLAG tag [i]
T3 construct: Expressed on 293α cells from pcDNA3.2 V5-DEST or pFLAG V5-DEST (FLAG-tagged) vectors; also called human SIRPA Variant 1; hSIRPA V1
T3 sequence (P78324 31-504 limits assumed): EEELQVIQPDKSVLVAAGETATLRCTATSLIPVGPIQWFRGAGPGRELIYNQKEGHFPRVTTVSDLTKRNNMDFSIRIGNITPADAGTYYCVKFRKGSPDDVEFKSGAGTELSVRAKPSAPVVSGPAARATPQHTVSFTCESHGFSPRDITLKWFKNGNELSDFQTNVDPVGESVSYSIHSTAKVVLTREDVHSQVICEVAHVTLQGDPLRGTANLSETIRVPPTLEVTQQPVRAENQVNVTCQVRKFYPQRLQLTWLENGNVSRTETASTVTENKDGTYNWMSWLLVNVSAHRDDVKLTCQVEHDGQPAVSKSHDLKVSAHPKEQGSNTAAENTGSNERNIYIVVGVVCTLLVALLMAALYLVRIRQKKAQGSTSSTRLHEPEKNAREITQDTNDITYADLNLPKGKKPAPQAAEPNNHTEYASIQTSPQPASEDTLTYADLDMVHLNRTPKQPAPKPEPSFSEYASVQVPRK
Procedure: as §1

[3] = biological target: T1, human SIRPA_V4; assay: cell-based ELISA on 293α cells expressing FLAG-tagged SIRPA_V4; Abs 490 normalized to FLAG tag [iv]
Procedure: as §1

[4] = biological target: T4, human SIRPA_V5 (human, UniProt P78324 31-504); assay: cell-based ELISA on 293α cells expressing FLAG-tagged SIRPA_V5; Abs 490 normalized to FLAG tag [i]
T4 construct: FLAG-tagged (pFLAG V5-DEST), on 293α cells; also called human SIRPA Variant 5
T4 sequence (P78324 other isoform, or with tags, fused parts or gaps limits assumed): as the sequence (P78324 31-504 limits assumed) above, with S12F counted along it
Procedure: as §1

[5] = biological target: T5, human SIRPA_V3 (human, UniProt P78324 31-504); assay: cell-based ELISA on 293α cells expressing FLAG-tagged SIRPA_V3; Abs 490 normalized to FLAG tag [iii]
T5 construct: FLAG-tagged (pFLAG V5-DEST), on 293α cells; also called human SIRPA Variant 3
T5 sequence (P78324 other isoform, or with tags, fused parts or gaps limits assumed): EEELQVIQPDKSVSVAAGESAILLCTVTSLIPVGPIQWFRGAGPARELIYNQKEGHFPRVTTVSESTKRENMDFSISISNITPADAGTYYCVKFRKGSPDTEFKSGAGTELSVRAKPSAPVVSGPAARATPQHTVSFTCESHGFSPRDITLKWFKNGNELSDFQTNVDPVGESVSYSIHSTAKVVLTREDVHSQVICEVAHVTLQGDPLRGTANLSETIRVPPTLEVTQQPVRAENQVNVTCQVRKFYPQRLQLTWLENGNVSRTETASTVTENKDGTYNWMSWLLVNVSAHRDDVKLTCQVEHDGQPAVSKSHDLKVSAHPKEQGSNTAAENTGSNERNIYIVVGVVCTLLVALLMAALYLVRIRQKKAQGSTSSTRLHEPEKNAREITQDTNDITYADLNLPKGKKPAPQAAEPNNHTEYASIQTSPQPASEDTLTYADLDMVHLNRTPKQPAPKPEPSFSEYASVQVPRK
Procedure: as §1

[6] = biological target: T6, human SIRPA_V2 protein (human, UniProt P78324 31-504); assay: blocking cell-based ELISA: peroxidase-labeled CD47-Fc (1 µg/mL) on 293α cells expressing SIRPA_V2; y axis = CD47-Fc signal relative to no antibody (100)
T6 construct: Expressed on 293α cells from pcDNA3.2 V5-DEST or pFLAG V5-DEST (FLAG-tagged) vectors; also called human SIRPA Variant 2; ECD variant (full-length, amino acids 1 to 504)
Procedure: After the culture supernatant of human SIRPA or monkey SIRPA expression vector-introduced 293α cells prepared in Example 8)-1 was removed, 50 μL per well of hD13_HIL3, hD13_HIL4h, hD13_H2L2, or hD13_H2L3 diluted with 5% FBS-containing PBS to a final concentration of 0 to 10,000 ng/ml was added to each of pcDNA3.2 V5-DEST-SIRPA_V1, pcDNA3.2 V5-DEST-SIRPA_V2, pcDNA3.2 V5-DEST-monkey SIRPA, and pcDNA3.2 V5-DEST-introduced 293α cells, immediately followed by addition of peroxidase-labeled CD47-Fc prepared with 5% FBS-containing PBS at 1 μg/mL, and the mixture was allowed to stand at 4° C. for one hour. Thereafter, the SIRPA-CD47 binding inhibitory activity was evaluated in the same manner as in 1)-6-3.

Binder | EC50 (read off the curve) [1] [µg/mL] | EC50 (read off the curve) [2] [µg/mL] | EC50 (read off the curve) [3] [µg/mL] | EC50 (read off the curve) [4] [µg/mL] | EC50 (read off the curve) [5] [µg/mL] | IC50 (read off the curve) [6] [µg/mL]
human chimeric anti-SIRPA antibody cD13 (antibody, human IgG4 S228P, kappa, F234A L235A, V domains shown, Human IgG4proFALA heavy chain, human kappa light chain; also called cD13 (IgG4pf); human chimeric antibody D13) VH: EVQLVESGGGLVQPGRSLKLSCLASGFTFSDYGMIWVRQAPGKGLEWVASISSSSSYIYYADTVKGRFTISRENAKNTLFLHMTSLRSEDTALYYCARRYYGFNYPFDYWGQGVMVTVSS VL: DTVLTQSPALAVSLGQRVTISCGASKSVRTYMHWYQQKSGQQPKLLIYSASNLEAGVPSRFSGSGSGTDFTLTIDPVEADDIANYYCQQSNEPPYTFGAGTKLELKR | ~0.03 | ~0.05 | ~0.04 | ~0.04 | ~0.04 | ~0.8
humanized anti-SIRPA antibody hD13_H1L3 (antibody, human IgG4 S228P, kappa, F234A L235A, V domains shown, hH1 heavy chain (IgG4proFALA) and hL3 kappa light chain; also called hD13_HIL3; HIL3 antibody) VH: QVQLVESGGGVVQPGRSLRLSCAASGFTFSDYGMIWVRQAPGKGLEWVASISSSSSYIYYADSVKGRFTISRDNSKNRLYLQMNSLRAEDTAVYYCARRYYGFNYPFDYWGQGTMVTVSS VL: DTQLTQSPSSLSASVGQRVTITCGASKSVRTYMHWYQQKPGKQPKLLIYSASNLEAGVPSRFSGSGSGTDFTLTISSLQPEDFATYYCQQSNEPPYTFGQGTKLEIKR | ~0.03 | ~0.04 | ~0.03 | ~0.04 | ~0.03 | ~0.6

Further lines, results first:

EC50 (read off the curve) [1] [µg/mL] | EC50 (read off the curve) [2] [µg/mL] | EC50 (read off the curve) [3] [µg/mL] | EC50 (read off the curve) [4] [µg/mL] | EC50 (read off the curve) [5] [µg/mL] | IC50 (read off the curve) [6] [µg/mL] | Binder
~0.03 | ~0.04 | ~0.04 | ~0.04 | ~0.03 | ~0.7 | humanized anti-SIRPA antibody hD13_H1L4 (antibody, human IgG4 S228P, kappa, F234A L235A, V domains shown, hH1 heavy chain (IgG4proFALA) and hL4 kappa light chain; also called hD13_HIL4; hD13_HIL4h) VH: QVQLVESGGGVVQPGRSLRLSCAASGFTFSDYGMIWVRQAPGKGLEWVASISSSSSYIYYADSVKGRFTISRDNSKNRLYLQMNSLRAEDTAVYYCARRYYGFNYPFDYWGQGTMVTVSS VL: DTVLTQSPDSLAVSLGQRATINCGASKSVRTYMHWYQQKPGQQPKLLIYSASNLEAGVPSRFSGSGSGTDFTLTISSLQAEDVAVYYCQQSNEPPYTFGQGTKVEIKR
~0.03 | ~0.05 | ~0.04 | ~0.04 | ~0.04 | ~0.7 | humanized anti-SIRPA antibody hD13_H2L3 (antibody, human IgG4 S228P, kappa, F234A L235A, V domains shown, hH2 heavy chain (IgG4proFALA) and hL3 kappa light chain; also called H2L3 antibody) VH: EVQLVESGGGVVQPGRSLRLSCAASGFTFSDYGMIWVRQAPGKGLEWVASISSSSSYIYYADSVKGRFTISRDNSKNTLYLQMNSLRAEDTAVYYCARRYYGFNYPFDYWGQGTMVTVSS VL: DTQLTQSPSSLSASVGQRVTITCGASKSVRTYMHWYQQKPGKQPKLLIYSASNLEAGVPSRFSGSGSGTDFTLTISSLQPEDFATYYCQQSNEPPYTFGQGTKLEIKR
~0.03 | ~0.04 | ~0.04 | ~0.04 | ~0.04 | ~0.8 | humanized anti-SIRPA antibody hD13_H2L2 (antibody, human IgG4 S228P, kappa, F234A L235A, V domains shown, hH2 heavy chain (IgG4proFALA) and hL2 kappa light chain; also called H2L2 antibody) VH: EVQLVESGGGVVQPGRSLRLSCAASGFTFSDYGMIWVRQAPGKGLEWVASISSSSSYIYYADSVKGRFTISRDNSKNTLYLQMNSLRAEDTAVYYCARRYYGFNYPFDYWGQGTMVTVSS VL: AIQLTQSPSSLSASVGQRVTITCGASKSVRTYMHWYQQKPGKAPKLLIYSASNLEAGVPSRFSGSGSGTDFTLTISSLQPEDFATYYCQQSNEPPYTFGQGTKLEIKR

— patent US20260098102A1 (NATIONAL UNIVERSITY CORPORATION KOBE UNIVERSITY, published 2026)
